Assay [1] has as its target T1, 破伤风类毒素 (TT) (破伤风梭菌 (C.tetani), UniProt P04958 2-1315).
The target in assay [2] is T2, 破伤风毒素重链C端结构域 (TeNT-HC, GenBank:AF154828) (破伤风梭菌 (C.tetani), UniProt P04958 865-1315).
T2 sequence: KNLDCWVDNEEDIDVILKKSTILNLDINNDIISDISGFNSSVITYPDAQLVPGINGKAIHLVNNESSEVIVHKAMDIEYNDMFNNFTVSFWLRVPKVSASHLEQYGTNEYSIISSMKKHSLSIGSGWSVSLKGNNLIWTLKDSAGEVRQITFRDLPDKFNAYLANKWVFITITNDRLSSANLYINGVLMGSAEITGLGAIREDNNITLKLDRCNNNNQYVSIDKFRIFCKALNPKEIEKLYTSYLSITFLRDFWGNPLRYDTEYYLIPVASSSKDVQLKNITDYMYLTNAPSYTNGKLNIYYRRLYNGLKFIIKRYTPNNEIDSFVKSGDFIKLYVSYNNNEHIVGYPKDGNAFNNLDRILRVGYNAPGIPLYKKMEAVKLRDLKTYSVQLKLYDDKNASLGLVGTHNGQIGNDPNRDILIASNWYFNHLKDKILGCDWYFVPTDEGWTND
The assay can be described thus: ELISA, coated TeNT-HC 1 μg/mL, T9-6 titrated 1:3 from 3.3 μg/mL. Background: ELISA stands for enzyme-linked immunosorbent assay.

Assay [3] concerns the target T1, 破伤风类毒素 (TT). The assay is described as follows: ELISA, coated TT 1 μg/mL, T9-6 titrated 1:3 from 3.3 μg/mL.

We go through one molecule from CN111909265A (INST MILITARY MEDICINE ACADEMY MILITARY SCIENCES PLA, dated 2020).

A word on the Kd: it is the equilibrium constant for the complex coming apart. By EC50 is commonly meant the midpoint of the concentration-response curve. A lower EC50 goes with greater potency.

T1 sequence (P04958 2-457 limits assumed): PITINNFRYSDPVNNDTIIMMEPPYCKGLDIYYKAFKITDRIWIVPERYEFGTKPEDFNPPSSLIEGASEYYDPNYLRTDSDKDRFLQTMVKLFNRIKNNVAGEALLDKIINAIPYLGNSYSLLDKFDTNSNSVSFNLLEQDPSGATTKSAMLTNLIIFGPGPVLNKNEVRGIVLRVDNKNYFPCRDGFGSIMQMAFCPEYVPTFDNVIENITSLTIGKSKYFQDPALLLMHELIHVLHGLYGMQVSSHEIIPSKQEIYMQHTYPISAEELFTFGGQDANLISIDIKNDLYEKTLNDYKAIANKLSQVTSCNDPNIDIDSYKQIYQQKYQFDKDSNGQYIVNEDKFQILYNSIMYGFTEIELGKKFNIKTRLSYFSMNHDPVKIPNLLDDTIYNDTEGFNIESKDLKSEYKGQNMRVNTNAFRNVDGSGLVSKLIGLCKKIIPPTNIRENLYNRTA

B1: T9-6 人源抗破伤风毒素单克隆抗体 (antibody, V domains shown)
VH: QLVQSGGGLIQPGGSLRLSCAASGSGFSVSSNYMTWVRQAPGKGLEWVAVIYRNGSTNYADSVRGRFTISRDNSKNTVFVQMNRLRVEDTAVYYCARDFVVVVSTGPEVSYYSYGMDVWGQGTMVTGSS
VL: DIVMTQSPSSLSASVGDRVTITCRASQGISDYLSWYQQKPGKAPKRLIYGTSSLDSGVPSRFSGSGSGTEFTLTISSLQPEDVATYYCLQHHGFPRTFGQGTKVDIKR
As for B1, binding in the assay with 破伤风类毒素 (TT) [1] was characterised by a dissociation constant (Kd) of 0.397 nM. In addition, the EC50 in assay [2] came out at 3.45 ng/mL; with 破伤风类毒素 (TT) [3], 6.18 ng/mL.
